Data from the DeepSol protein solubility set.

Assay: soluble on expression in E. coli; label from the status in PepcDB or PDB records

Row | Sequence | soluble on expression in E. coli
1 | MGSDKIHHHHHHFKSKGKKSKRKKRNYFDSEDDDDESESETKYGGKFGKKKLEGLQKRLRETESAMSKILEQLESVQAGANPVDLDAADKRSEQLEEDPSVKEAVGLTETNEQYIKDLEVALKEFQSLSKEYDKAKMKKLKRKDSSSDEDEEDEEENSSELSEIEEEEEEVKPVKKSKSSSQSVGKRKNRPKSTSEEEDEGEEESRKVAEDAEEEGIDIDSEIREHAEKEKKDKNVRRRRPKKT | not soluble
2 | MGGSHHHHHHGDDDDKMTKTFKTLDDFLGTHFIYTYDNGWEYEWYAKNDHTVDYRIHGGMVAGRWVTDQKADIVMLTEGIYKISWTEPTGTDVALDFMPNEKKLHGTIFFPKWVEEHPEITVTYQNEHIDLMEQSREKYATYPKLVVPEFANITYMGDAGQNNEDVISEAPYKEMPNDIRNGKYFDQNYHRLNK | soluble
3 | MIMKNGIVYFVGAGPGDPGLLTIKGKQALKEADVILYDRLANPKLLEFASPDCQFIYCGKLPNRHFMKQKEINALLVEKALNGLTVVRLKGGDPSVFGRVGEEADALHEHGIRYEMVPGITSGIAAPLYAGIPVTHRDFASSFAMITAHDKSLKGTPNLDWEGLARSVQTLVFYMGVKNLSYICQQLISYGKSPSVPVIVIQWGTWGRQRSVKGTLENIQQKVQEHQITNPAIIVIGDIVNFQTHSWFESKPLIGRHLMVVTHGEDEDPLADKLRDSGADLIEWPKWRTENMPVNEEILRKIGTFEDVFFTSRRAVCEFFRALASQKIDIRQLTAKLSAASEQAKTELEKRGFLVTAIQPDSEKRLVVGSRHAVENMQKHESCSFYITHENVIDDRFTHMIQRTISESPLHMVICPNKLSVQQLINGGEQIGILPEPSASRPPIVCIGDDSAAGIYGFTAVQEQDELLAFIHNQHAEKKLL | not soluble
4 | MAQTERRDAPELPDFSLLKRLARDQLIFLLEQLPGKKDLFIDADLMSPLDRIANVTILKQHEVDKLYKVELKPIVSSSDQLCFLIRPRIQTVKWISDLVNSDKVAGRFRRYKIIFTPQKFYACETVLEEQGVYGDVTTDEWNFYILPLDDDILSLELPEFFRDNFLEGDQRWVTTGGGALHLLQSVYGSFSKVYGIGRCAKMVYESWRELMEEGEQRTRQPEFAKVFLIDRDVDFVTPLCSQVVYEGLVDDIFRIKCSSVEFGPDVTSSDKSIKVMLNSQDKVFNEIRNEHFSNVFGFLSQKAKNLQTAYDKRRGMDIQQMKAFVADELKGLKQEHRLLSLHIGASESIMKKKTKQDFQELLKTEHSLLEGFEIRECIAYIEEHINRQVSMIDSLRLLCLLSITENGLLSKDYRSLKAQYLQSYGIEHLLTFANLRQLGLLEEQQTGETLTVMESKVGKLVNDKTAGKLTDAFSSLAKKSNFRALSKRLALVPKSGEEYDLRVPRDMAYIFSGAYIPLSCKLIEQVLERDGWTGLEEVTRMLNGQDFAVTGGSSSSEARNKSNGQRIILVMFLGGCTYSEISALRFLGKERGCRFIVLTTAITNSGRLLEALLDKHV | soluble
5 | MVENVKIIRKKIKNMYLVVNPDCSVVVKAPVHVSDEYINSFIKKKESWIKKHLENFESLNSKSVAKKYIDGELFKYLGNEYILKVYPSKKEYLEISDNFFNLYVLETNDFEKKKKIIEKFYRKRAEIELFEIFKSNYKVVTEKMPDFSVRKMKKRWGSCSFHKNKIILNERLIEKSKDCIEYVVFHELAHLRYPNHSKDFYNYLTELMPEWKVKKLKLNERHLEHHHHHH | soluble
6 | MTNTAKILNFCRGNFAKQERNVADLDDGYARLSNMLLEAYSGADLTKRQFKVLLAILRKTYGWNKPMDRITDSQLSEITKLPVKRCNEAKLELVRMNIIKQQGGMFGPNKNISEWCIPQNEGKSPKTRDKTSLKLGDCYPSKQGDTKDTITKEKRKDYSSENSGESSDQPENDLSVVKPDAAIQSGSKWGTAEDLTAAEWMFDMVKTIAPSARKPNFAGWANDIRLMRERDGRNHRDMCVLFRWACQDNFWSGNVLSPAKLRDKWTQLEINRNKQQAGVTACKPKLDLTNTDWIYGVDL | not soluble
7 | MEKNMRPYTVLWADDEIDLLKPHILFLEQKGYQVTPVLSGNDAIEAVQNNDFDIVFLDENMPGIGGLDALQKIKELKPYTPVVMITKSEEEHIMTQAIGGKIADYLIKPVNPNQLLLSLKKNLQQHSIISETTNTNYRQEFVQLGTQMSGKLSFEEWKELYRRIVFWEIELEQADRQMGELLEMQKQEANRLFARFVTQNYREWIAKPDTRPTMSPDLFKQKVFPLLDNGEKVFFILIDNFRQDQWESVKSMLSEFYTFEEDMYLSILPTATQYARNAIFSGLMPLQIEKMFPDLWVDEESEEGKNLNEEPMIRTLIERYRKHYSFSYNKVYETKFGERLLGQIRSLSQNQLNVIVLNFVDMMSHARTDSKMIRELASNEAAYRSLTKSWFKHSTTYNLFRSIAEMGYKVVLTTDHGTIQVKNPVKVIGDRSTNTNLRYKIGKNLDYNPKEVFEIKDPASVGLPHNNLSDKFIFTKEDDFFAYPNNYNYYVQYYRNTFQHGGISLEEMLVPVITMQPK | not soluble
8 | MWCLPLSSGNDAHMTTHIQRSALLPYPAGFLYDLVNDVARYPEFLPWCSSATVLDASESQMRASLEIAKGGLSQKFMTRNTLVPGESIVMDLVEGPFEQFHGVWTFKPLGEKACKISLDLSFDYAGTIVRATLGPLFNQAANTLVDAFCQRAKELHGLEHHHHHH | not soluble
9 | MNKAYYIGLMSGTSMDGVDAVLVDFAGEQPQLIGTHTETIPTHLLKGLQRLCLPGTDEINRLGRLDRSVGKLFALAVNNLLAKTKIAKDEIIAIGSHGQTVRHMPNLEVGFTLQIGDPNTIATETGIDVIADFRRKDIALGGQGAPLVPAFHQQTFAQVGKKRVILNIGGIANITYLPGNSEEVLGFDTGPGNTLIDAWVQQVKNESYDKNGAWAASGKTDPQLLAQLLSHPYFSLAYPKSTGRELFNQAWLEQQLSAFNQLNEEDIQSTLLDLTCHSIAQDILKLAQEGELFVCGGGAFNAELMQRLAALLPGYRIDTTSALGVDPKWAEGIAFAWLAMRYQLGLPANLPAVTGASREAILGGRFSAK | soluble
10 | MKLSTAFLTFSAVFLYGSAQQLLYLNSFKGMRVNNDMYEWCNIYISAQSDDTSFLASVYIVTAKNSKSLLNIMQDNLQNTGEIQGYPVDPPAYLTTSLSDNEMKQLNGVIYLSSAGQRVDSTFHVYDIYQARKMNIIANGYSTFLFLNSNMQTKPSRSSIISDWNQIKGSSGLLYAGFPLDSKVNVYPIFSNPITIQNSEVLFPNVETFSLSLAAFYITTNNGFSFKIKPGYYNINGTNTTSVYSTTGFYMKPAGEDDSTIVVNIENDIRCSGTSGASVVGHFPTGGNVTVGFYNGMAKYEQSAPPEDYPSYNPWTIPFIGQHFKVSSTNGTAGQYYVQYFVNQRPPRQTTPPETTTKSAGAVKLFTSVVTLLMYWL | not soluble
11 | GPGSMSERDKQRRSLERERMATVIFSYISHLMRTHEEETTVADEFIPSTKFFRTETLPNISLIHYVRRVVEHMNCSPEAYIFALAYIRRLFVAGFPLHTHSIYRLLLTAVVVATRVRDDFLFSKKYYSKVGGVTACDLNMMEIHFLADLLEYRVEVSPDEYRVLCNEITALLSSEVSKFDGNSSNPNNDTAAEGVASIQEPVGNSKPRWMSECCLYW | not soluble
12 | MPNLSNRLTLLREKQGWSKAETARRLGLKAPSTYGNWEYGIREPDLDMVTQIATLYDVSVDYLLGQQSIPTYAPSELQGEKDIAKRMIKISEDLRYEDDLNLNGKPLNDSAAHFLADSIDFLYEQAKKLND | not soluble
13 | MAHHHHHHMAAMLRLTFALRLSSKQLSHGPLATHTRKQSFRQSKTALQVSRLRSQTQRANFNLQQELNRDFGARQYAFAQGRRSMQRAAEDLMYDRAYRAERHRGRAGEVYRTTKDRAAEVATARQLLQMQESTRRLMKKGRTQRVEAFRAQKQWNR | not soluble
14 | MSLKLILNTQINTKLREIDISNETELIMSNDFPVNKIAMTGKVGYADMQGQRGTMEDALIVDSNIGIYAIFDGHGGHIVSSLSAQRIHERLQSLQNGSEFRELITQAVDSVVGELKEKKVLGGSTMCLVRVGQDKIEVANIGDSRCVAILKDGTQRQLSNDHKPTYRPEVERIREKGSFVSKGRVQGRLAVARAIGDFAVLGIESVIEFTEIDKDIVSRIVIGCDGLYDVVSNEDCLKICNENQSAVTTAYKLRDRAFQRGSTDNISVIVVDCLEGHHHHHH | soluble
